For this test, the target named is TARP γ-2 (rat) (UniProt Q71RJ2). Put plainly: co-IP; GluA2 variants transfected into HEK293T cells stably expressing TARP γ-2; proteins extracted under mild detergent conditions; IP with an anti-γ-2 antibody, blot probed with polyclonal GluA2 antibody; amounts normalized to the input.
TARP γ-2 (rat), sequence (Q71RJ2 whole entry): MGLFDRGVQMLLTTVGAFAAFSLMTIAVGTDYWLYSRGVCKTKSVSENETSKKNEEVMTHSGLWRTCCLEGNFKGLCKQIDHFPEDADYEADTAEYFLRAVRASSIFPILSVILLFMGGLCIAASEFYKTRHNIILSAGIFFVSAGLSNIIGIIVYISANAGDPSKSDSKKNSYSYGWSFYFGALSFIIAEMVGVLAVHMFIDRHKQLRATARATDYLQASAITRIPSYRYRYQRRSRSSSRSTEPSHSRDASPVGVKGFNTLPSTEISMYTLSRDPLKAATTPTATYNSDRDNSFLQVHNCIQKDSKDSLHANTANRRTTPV

GluA2i-ΔNTD (flip, R607), sequence (P19491 other isoform, or with tags, fused parts or gaps, stated change not applied): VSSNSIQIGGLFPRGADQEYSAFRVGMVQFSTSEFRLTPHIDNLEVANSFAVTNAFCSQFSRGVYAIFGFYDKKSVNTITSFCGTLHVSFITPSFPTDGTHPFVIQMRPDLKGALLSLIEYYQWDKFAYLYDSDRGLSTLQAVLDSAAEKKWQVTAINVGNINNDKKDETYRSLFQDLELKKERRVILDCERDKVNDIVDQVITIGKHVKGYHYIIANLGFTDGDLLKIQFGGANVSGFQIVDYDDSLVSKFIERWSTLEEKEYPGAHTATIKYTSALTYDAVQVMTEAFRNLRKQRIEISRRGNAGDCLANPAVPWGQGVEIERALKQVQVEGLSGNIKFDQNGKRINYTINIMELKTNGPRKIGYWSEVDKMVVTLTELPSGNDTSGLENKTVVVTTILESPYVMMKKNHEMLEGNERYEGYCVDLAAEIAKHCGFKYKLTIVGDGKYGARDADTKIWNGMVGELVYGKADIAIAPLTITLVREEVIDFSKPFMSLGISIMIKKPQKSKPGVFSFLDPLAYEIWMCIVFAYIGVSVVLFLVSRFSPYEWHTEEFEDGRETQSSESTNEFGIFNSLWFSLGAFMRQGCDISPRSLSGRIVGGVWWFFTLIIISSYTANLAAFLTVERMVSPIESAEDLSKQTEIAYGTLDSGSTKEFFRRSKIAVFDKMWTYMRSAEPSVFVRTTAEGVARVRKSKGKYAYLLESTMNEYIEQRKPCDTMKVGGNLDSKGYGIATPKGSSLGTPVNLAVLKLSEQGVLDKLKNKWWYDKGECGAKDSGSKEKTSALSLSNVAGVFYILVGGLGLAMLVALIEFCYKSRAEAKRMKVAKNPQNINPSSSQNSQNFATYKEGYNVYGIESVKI
GluA2o-R607 ΔNTD (flop Δ-NTD mutant), sequence (P19491 other isoform, or with tags, fused parts or gaps, stated change not applied): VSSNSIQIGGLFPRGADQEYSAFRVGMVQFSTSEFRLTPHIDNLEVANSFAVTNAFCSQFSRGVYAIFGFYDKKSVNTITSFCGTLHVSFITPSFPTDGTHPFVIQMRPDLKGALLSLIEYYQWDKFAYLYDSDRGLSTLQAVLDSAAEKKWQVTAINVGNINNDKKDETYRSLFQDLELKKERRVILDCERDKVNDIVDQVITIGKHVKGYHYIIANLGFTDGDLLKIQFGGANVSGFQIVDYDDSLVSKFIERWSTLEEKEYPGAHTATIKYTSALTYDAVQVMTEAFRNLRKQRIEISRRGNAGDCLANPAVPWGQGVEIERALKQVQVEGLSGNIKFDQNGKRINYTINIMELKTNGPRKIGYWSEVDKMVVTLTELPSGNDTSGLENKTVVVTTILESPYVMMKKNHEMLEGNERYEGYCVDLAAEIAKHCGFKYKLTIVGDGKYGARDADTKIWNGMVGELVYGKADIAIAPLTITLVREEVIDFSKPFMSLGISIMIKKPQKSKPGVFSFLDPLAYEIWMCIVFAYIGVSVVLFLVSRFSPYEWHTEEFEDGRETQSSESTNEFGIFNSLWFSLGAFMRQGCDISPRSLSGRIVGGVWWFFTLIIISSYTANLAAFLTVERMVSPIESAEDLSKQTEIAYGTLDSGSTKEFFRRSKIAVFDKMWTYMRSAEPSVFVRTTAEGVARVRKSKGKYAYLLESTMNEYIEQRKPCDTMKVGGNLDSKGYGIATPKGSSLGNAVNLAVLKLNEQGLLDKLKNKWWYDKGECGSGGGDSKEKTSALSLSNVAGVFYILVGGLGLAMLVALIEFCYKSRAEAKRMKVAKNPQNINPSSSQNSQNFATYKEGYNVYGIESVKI

On to “GluA2i-ΔNTD (flip, R607) (from UniProt P19491-2 22-883) (receptor)”, for which the fold reduction of coIP by the Q to R switch (ΔNTD R607 against ΔNTD Q607) was 2.2 fold and the ratio of IPed GluA2i WT to GluA2i-ΔNTD, normalized to the input amounted to 2.9 fold.

As to “GluA2o-R607 ΔNTD (flop Δ-NTD mutant) (from UniProt P19491 22-883) (receptor)”, the fold less efficiently precipitated than the flip ΔNTD counterpart is 2.9 fold.

The values are drawn from publication PMC4405707.
